Assay results: publication doi:10.1101/2023.02.03.526966
pKd: −log10 of the molar value.

target: recombinant mouse nidogen-2 (ELISA) (mouse) (UniProt O88322); assay: ELISA
UniProt O88322, sequence (O88322 31-1403): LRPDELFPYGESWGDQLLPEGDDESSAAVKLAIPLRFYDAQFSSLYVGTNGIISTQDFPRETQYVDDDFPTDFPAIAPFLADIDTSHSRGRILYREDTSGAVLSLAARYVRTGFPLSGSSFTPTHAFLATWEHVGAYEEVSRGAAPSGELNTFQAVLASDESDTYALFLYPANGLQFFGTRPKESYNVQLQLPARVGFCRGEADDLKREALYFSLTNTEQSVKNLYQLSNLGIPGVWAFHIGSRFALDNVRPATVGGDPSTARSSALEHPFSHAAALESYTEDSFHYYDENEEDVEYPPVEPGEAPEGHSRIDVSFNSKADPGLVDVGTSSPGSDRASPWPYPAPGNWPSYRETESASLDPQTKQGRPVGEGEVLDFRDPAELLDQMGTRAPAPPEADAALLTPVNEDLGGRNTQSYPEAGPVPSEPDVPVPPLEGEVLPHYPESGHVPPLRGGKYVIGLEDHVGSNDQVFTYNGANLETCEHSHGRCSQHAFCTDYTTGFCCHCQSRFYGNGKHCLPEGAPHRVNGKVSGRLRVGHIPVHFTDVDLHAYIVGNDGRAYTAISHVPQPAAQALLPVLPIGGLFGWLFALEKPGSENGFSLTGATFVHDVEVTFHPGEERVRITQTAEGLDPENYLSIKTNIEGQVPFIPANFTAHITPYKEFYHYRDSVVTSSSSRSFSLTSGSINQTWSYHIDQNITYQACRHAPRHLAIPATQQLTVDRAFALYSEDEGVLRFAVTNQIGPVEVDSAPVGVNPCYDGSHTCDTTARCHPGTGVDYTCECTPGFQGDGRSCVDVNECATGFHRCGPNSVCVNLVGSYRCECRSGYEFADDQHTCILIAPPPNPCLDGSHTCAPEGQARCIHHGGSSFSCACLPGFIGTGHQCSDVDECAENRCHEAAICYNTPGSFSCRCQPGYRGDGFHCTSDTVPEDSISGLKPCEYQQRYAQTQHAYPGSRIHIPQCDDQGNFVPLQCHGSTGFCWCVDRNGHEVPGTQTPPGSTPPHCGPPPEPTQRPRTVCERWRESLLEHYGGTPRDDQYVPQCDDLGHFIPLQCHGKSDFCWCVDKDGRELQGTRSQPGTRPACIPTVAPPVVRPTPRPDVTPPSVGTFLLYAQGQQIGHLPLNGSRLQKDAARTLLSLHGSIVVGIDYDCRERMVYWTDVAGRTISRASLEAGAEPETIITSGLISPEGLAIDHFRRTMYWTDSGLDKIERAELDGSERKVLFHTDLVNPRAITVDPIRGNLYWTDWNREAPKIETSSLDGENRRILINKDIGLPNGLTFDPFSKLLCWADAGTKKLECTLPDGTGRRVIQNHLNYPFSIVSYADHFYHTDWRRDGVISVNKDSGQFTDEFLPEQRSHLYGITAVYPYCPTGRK

Row | Substance | pKd
1 | LAR FNIII2-FLAG (purified soluble 2nd FNIII domain of LAR) (domain or fragment) | 5.70
2 | LAR FNIII4-FLAG (purified soluble 4th FNIII domain of LAR) (domain or fragment) | 5.72
3 | LAR FNIII5-FLAG (purified soluble 5th FNIII domain of LAR) (domain or fragment) | 5.85
4 | LAR FNIII7-FLAG (purified soluble 7th FNIII domain of LAR) (domain or fragment) | 5.60
